Like-named read-outs stand apart in the source and are kept apart here. Blank lines part the entries; values can stand above or below the substance they belong to.
Legend:
TβRII ECD (Homo sapiens) = TβRII ECD (Homo sapiens) (UniProt P37173); details: cited from earlier work
human TGF-β2 (human) [1] = assay: SPR
[2] = biological target: TGF-β2DM:TβRII binary complex (human) (UniProt P37173); assay: SEC-MALS
human TGF-β2 (human) [3] = assay: SPR; remark: listed apart in the source

Chain of TβRII ECD (Homo sapiens) (P37173 23-166): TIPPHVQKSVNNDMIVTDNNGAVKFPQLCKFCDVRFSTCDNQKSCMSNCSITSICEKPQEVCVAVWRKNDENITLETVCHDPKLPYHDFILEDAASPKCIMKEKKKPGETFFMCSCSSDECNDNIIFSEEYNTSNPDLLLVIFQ

Substance: TGF-β2 (from UniProt P61812)
Kd (TβRII ECD (Homo sapiens)): 20 µM

Kd (human TGF-β2 (human) [1]): 4.95 nM
koff (human TGF-β2 (human) [1]): 0.00173 s⁻¹
kon (human TGF-β2 (human) [1]): 350000 M⁻¹ s⁻¹
stoichiometry N (BG (O-ZP) per TGF-β2DM dimer) [2]: 1
Substance: full-length zebrafish betaglycan ectodomain (domain or fragment)

KD1 (heterogeneous-ligand fit, ligand class 1) (human TGF-β2 (human) [1]): 1100 nM
KD2 (heterogeneous-ligand fit, ligand class 2) (human TGF-β2 (human) [1]): 480 nM
ka1 (heterogeneous-ligand fit, ligand class 1) (human TGF-β2 (human) [1]): 480000 M⁻¹ s⁻¹
kd1 (heterogeneous-ligand fit, ligand class 1) (human TGF-β2 (human) [1]): 0.51 s⁻¹
kd2 (heterogeneous-ligand fit, ligand class 2) (human TGF-β2 (human) [1]): 9300 s⁻¹
Substance: zebrafish betaglycan ZP-C domain (domain or fragment)

Kd (human TGF-β2 (human) [1]): 27 nM
koff (human TGF-β2 (human) [1]): 0.0288 s⁻¹
kon (human TGF-β2 (human) [1]): 1.07e+06 M⁻¹ s⁻¹
stoichiometry N (BGO per TGF-β2DM dimer) [2]: 1
Kd (human TGF-β2 (human) [3]): 15 nM
koff (human TGF-β2 (human) [3]): 0.00772 s⁻¹
kon (human TGF-β2 (human) [3]): 528000 M⁻¹ s⁻¹
Substance: zebrafish betaglycan orphan domain (domain or fragment)
